{"source": "patent US8673848", "about": "(Novartis, dated 2014)", "note": "*1 amine or outer side, *2 acyl side, *3 side chain or, on linkers, in order; H or OH if unused. Bridges are numbered along the chain shown (N, C = ends). [ ]: non-standard residue; d: D form. The star is where a group is joined. ‑S‑CH2‑C(:Z)‑CH2‑S‑ = thioether linker between two Cys sulfurs, S-CH2-C(=Z)-CH2-S, where Z is an oxime formed with (S)-1-(aminooxy)-19-carboxy-2,7,16,21-tetraoxo-9,12-dioxa-3,6,15,20-tetraazaoctatriacontan-38-oic acid (a fatty acid derivative, O=C(O)CCCCCCCCCCCCCCCCC(=O)N[C@@H](CCC(=O)NCCOCCOCC(=O)NCCNC(=O)CON=C(C[*:1])C[*:2])C(=O)O; Myristoyl = CCCCCCCCCCCCCC(=O)*; pGlu = O=C1CC[C@@H](C(=O)O)N1; d(hCys) = N[C@H](CCS)C(=O)O; Nle = CCCC[C@H](N)C(=O)O; AEEA = NCCOCCOCC(=O)O"}
{"target": "T1, human APJ receptor (hAPJ) (human, UniProt P35414 1-380)", "T1 sequence (looked up)": "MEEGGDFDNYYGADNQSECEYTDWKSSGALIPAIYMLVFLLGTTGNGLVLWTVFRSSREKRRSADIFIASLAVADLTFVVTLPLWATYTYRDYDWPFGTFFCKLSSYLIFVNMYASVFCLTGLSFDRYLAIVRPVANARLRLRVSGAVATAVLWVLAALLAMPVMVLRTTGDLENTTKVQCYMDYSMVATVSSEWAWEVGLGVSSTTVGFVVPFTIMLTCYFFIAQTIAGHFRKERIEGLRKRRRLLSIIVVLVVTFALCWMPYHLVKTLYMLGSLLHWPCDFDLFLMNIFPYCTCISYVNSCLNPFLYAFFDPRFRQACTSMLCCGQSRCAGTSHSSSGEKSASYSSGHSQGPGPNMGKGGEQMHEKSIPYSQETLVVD", "test": "cell-based or functional assay", "units": {"hAPJ Ca2+ Flux EC50": "nM"}}
{"binder": "[pGlu]RPRLKFKGP[Nle][dF] (lactam 6-C; SMILES CCCC[C@@H]1NC(=O)[C@@H]2CCCN2C(=O)CNC(=O)[C@H](CCCCN)NC(=O)[C@H](Cc2ccccc2)NC(=O)[C@@H](NC(=O)[C@H](CC(C)C)NC(=O)[C@H](CCCNC(=N)N)NC(=O)[C@@H]2CCCN2C(=O)[C@H](CCCNC(=N)N)NC(=O)[C@@H]2CCC(=O)N2)CCCCNC(=O)[C@@H](Cc2ccccc2)NC1=O)", "note": "[Example 6: pE-R-P-R-L-K-F-K-G-P-Nle-f]", "hAPJ Ca2+ Flux EC50": 22}
{"binder": "[pGlu]RPRLCHK(Myristoyl)GP[Nle]CF-OH (disulfide 6-12; SMILES CCCCCCCCCCCCCC(=O)NCCCC[C@@H]1NC(=O)[C@H](Cc2c[nH]cn2)NC(=O)[C@@H](NC(=O)[C@H](CC(C)C)NC(=O)[C@H](CCCNC(=N)N)NC(=O)[C@@H]2CCCN2C(=O)[C@H](CCCNC(=N)N)NC(=O)[C@@H]2CCC(=O)N2)CSSC[C@@H](C(=O)N[C@@H](Cc2ccccc2)C(=O)O)NC(=O)[C@H](CCCC)NC(=O)[C@@H]2CCCN2C(=O)CNC1=O)", "note": "[Example 61: pE-R-P-R-L-C-H-K(Myristoyl)-G-P-Nle-C-F-OH]", "hAPJ Ca2+ Flux EC50": 89.2}
{"binder": "Myristoyl-[AEEA][AEEA][AEEA]QRPRLCHKGP[Nle]C[dF]-OH (disulfide 9-15; SMILES CCCCCCCCCCCCCC(=O)NCCOCCOCC(=O)NCCOCCOCC(=O)NCCOCCOCC(=O)N[C@@H](CCC(N)=O)C(=O)N[C@@H](CCCNC(=N)N)C(=O)N1CCC[C@H]1C(=O)N[C@@H](CCCNC(=N)N)C(=O)N[C@@H](CC(C)C)C(=O)N[C@H]1CSSC[C@@H](C(=O)N[C@H](Cc2ccccc2)C(=O)O)NC(=O)[C@H](CCCC)NC(=O)[C@@H]2CCCN2C(=O)CNC(=O)[C@H](CCCCN)NC(=O)[C@H](Cc2c[nH]cn2)NC1=O)", "note": "[Example 59: Myristoyl-O2Oc-O2Oc-O2Oc-Q-R-P-R-L-C-H-K-G-P-Nle-C-f-OH]", "hAPJ Ca2+ Flux EC50": 10}
{"binder": "[pGlu]RPRLCHKGP[Nle]C-NH2 (disulfide 6-12; SMILES CCCC[C@@H]1NC(=O)[C@@H]2CCCN2C(=O)CNC(=O)[C@H](CCCCN)NC(=O)[C@H](Cc2c[nH]cn2)NC(=O)[C@@H](NC(=O)[C@H](CC(C)C)NC(=O)[C@H](CCCNC(=N)N)NC(=O)[C@@H]2CCCN2C(=O)[C@H](CCCNC(=N)N)NC(=O)[C@@H]2CCC(=O)N2)CSSC[C@@H](C(N)=O)NC1=O)", "note": "[Example 63: pE-R-P-R-L-C-H-K-G-P-Nle-C-NH2]", "hAPJ Ca2+ Flux EC50": 3.18}
{"binder": "[pGlu]RPRLCHKGP[Nle]CF-OH (bridge 6-12; not fully specified (bridges); printed as pE-R-P-R-L-C-H-K-G-P-Nle-C-F-OH)", "hAPJ Ca2+ Flux EC50": 1.1}
{"binder": "[pGlu]RPRL[dC]HKGP[Nle][dC]F-OH (disulfide 6-12; SMILES CCCC[C@@H]1NC(=O)[C@@H]2CCCN2C(=O)CNC(=O)[C@H](CCCCN)NC(=O)[C@H](Cc2c[nH]cn2)NC(=O)[C@H](NC(=O)[C@H](CC(C)C)NC(=O)[C@H](CCCNC(=N)N)NC(=O)[C@@H]2CCCN2C(=O)[C@H](CCCNC(=N)N)NC(=O)[C@@H]2CCC(=O)N2)CSSC[C@H](C(=O)N[C@@H](Cc2ccccc2)C(=O)O)NC1=O)", "note": "[Example 57: pE-R-P-R-L-c-H-K-G-P-Nle-c-F-OH]", "hAPJ Ca2+ Flux EC50": 2.01}
{"binder": "Myristoyl-[AEEA][AEEA]QRPRLCHKGP[Nle]C[dF]-OH (disulfide 8-14; SMILES CCCCCCCCCCCCCC(=O)NCCOCCOCC(=O)NCCOCCOCC(=O)N[C@@H](CCC(N)=O)C(=O)N[C@@H](CCCNC(=N)N)C(=O)N1CCC[C@H]1C(=O)N[C@@H](CCCNC(=N)N)C(=O)N[C@@H](CC(C)C)C(=O)N[C@H]1CSSC[C@@H](C(=O)N[C@H](Cc2ccccc2)C(=O)O)NC(=O)[C@H](CCCC)NC(=O)[C@@H]2CCCN2C(=O)CNC(=O)[C@H](CCCCN)NC(=O)[C@H](Cc2c[nH]cn2)NC1=O)", "note": "[Example 58: Myristoyl-O2Oc-O2Oc-Q-R-P-R-L-C-H-K-G-P-Nle-C-f-OH]", "hAPJ Ca2+ Flux EC50": 13.1}
{"binder": "[pGlu]RPRL[d(hCys)]HKGP[Nle][d(hCys)]F-OH (disulfide 6-12; SMILES CCCC[C@@H]1NC(=O)[C@@H]2CCCN2C(=O)CNC(=O)[C@H](CCCCN)NC(=O)[C@H](Cc2c[nH]cn2)NC(=O)[C@H](NC(=O)[C@H](CC(C)C)NC(=O)[C@H](CCCNC(=N)N)NC(=O)[C@@H]2CCCN2C(=O)[C@H](CCCNC(=N)N)NC(=O)[C@@H]2CCC(=O)N2)CCSSCC[C@H](C(=O)N[C@@H](Cc2ccccc2)C(=O)O)NC1=O)", "note": "[Example 55: pE-R-P-R-L-(D-hC)-H-K-G-P-Nle-(D-hC)-F-OH]", "hAPJ Ca2+ Flux EC50": 8.16}
{"binder": "[pGlu]RPRLCHKGP[Nle]CF-OH (linker 6-12 via ‑S‑CH2‑C(O)CH2‑S‑)", "hAPJ Ca2+ Flux EC50": 6.3}
{"binder": "[pGlu]RPRLCHKGP[Nle]CF-OH (linker 6-12 via ‑S‑CH2‑C(:Z)‑CH2‑S‑; also: Z = oxime with (S)-1-(aminooxy)-19-carboxy-2,7,16,21-tetraoxo-9,12-dioxa-3,6,15,20-tetraazaoctatriacontan-38-oic acid on the linker ketone)", "hAPJ Ca2+ Flux EC50": 589}
{"binder": "[pGlu]RPRLCHKGP[Nle]CF-NH2 (disulfide 6-12; SMILES CCCC[C@@H]1NC(=O)[C@@H]2CCCN2C(=O)CNC(=O)[C@H](CCCCN)NC(=O)[C@H](Cc2c[nH]cn2)NC(=O)[C@@H](NC(=O)[C@H](CC(C)C)NC(=O)[C@H](CCCNC(=N)N)NC(=O)[C@@H]2CCCN2C(=O)[C@H](CCCNC(=N)N)NC(=O)[C@@H]2CCC(=O)N2)CSSC[C@@H](C(=O)N[C@@H](Cc2ccccc2)C(N)=O)NC1=O)", "note": "[Example 62: pE-R-P-R-L-C-H-K-G-P-Nle-C-F-NH2]", "hAPJ Ca2+ Flux EC50": 3.32}
{"binder": "[pGlu]RPRLCHKGP[Nle][d(hCys)]F-OH (disulfide 6-12; SMILES CCCC[C@@H]1NC(=O)[C@@H]2CCCN2C(=O)CNC(=O)[C@H](CCCCN)NC(=O)[C@H](Cc2c[nH]cn2)NC(=O)[C@@H](NC(=O)[C@H](CC(C)C)NC(=O)[C@H](CCCNC(=N)N)NC(=O)[C@@H]2CCCN2C(=O)[C@H](CCCNC(=N)N)NC(=O)[C@@H]2CCC(=O)N2)CSSCC[C@H](C(=O)N[C@@H](Cc2ccccc2)C(=O)O)NC1=O)", "note": "[Example 54: pE-R-P-R-L-C-H-K-G-P-Nle-(D-hC)-F-OH]", "hAPJ Ca2+ Flux EC50": 6.7}
{"binder": "Myristoyl-[AEEA][AEEA][AEEA][AEEA]QRPRLCHKGP[Nle]C[dF]-OH (disulfide 10-16; SMILES CCCCCCCCCCCCCC(=O)NCCOCCOCC(=O)NCCOCCOCC(=O)NCCOCCOCC(=O)NCCOCCOCC(=O)N[C@@H](CCC(N)=O)C(=O)N[C@@H](CCCNC(=N)N)C(=O)N1CCC[C@H]1C(=O)N[C@@H](CCCNC(=N)N)C(=O)N[C@@H](CC(C)C)C(=O)N[C@H]1CSSC[C@@H](C(=O)N[C@H](Cc2ccccc2)C(=O)O)NC(=O)[C@H](CCCC)NC(=O)[C@@H]2CCCN2C(=O)CNC(=O)[C@H](CCCCN)NC(=O)[C@H](Cc2c[nH]cn2)NC1=O)", "note": "[Example 60: Myristoyl-O2Oc-O2Oc-O2Oc-O2Oc-Q-R-P-R-L-C-H-K-G-P-Nle-C-f-OH]", "hAPJ Ca2+ Flux EC50": 8.15}
{"binder": "[pGlu]RPRLCHKGP[Nle][dC]F-OH (disulfide 6-12; SMILES CCCC[C@@H]1NC(=O)[C@@H]2CCCN2C(=O)CNC(=O)[C@H](CCCCN)NC(=O)[C@H](Cc2c[nH]cn2)NC(=O)[C@@H](NC(=O)[C@H](CC(C)C)NC(=O)[C@H](CCCNC(=N)N)NC(=O)[C@@H]2CCCN2C(=O)[C@H](CCCNC(=N)N)NC(=O)[C@@H]2CCC(=O)N2)CSSC[C@H](C(=O)N[C@@H](Cc2ccccc2)C(=O)O)NC1=O)", "note": "[Example 56: pE-R-P-R-L-C-H-K-G-P-Nle-c-F-OH]", "hAPJ Ca2+ Flux EC50": 1.12}
